Earlier results as cited in article PMC7035337.

Molecular target: vimentin (Homo sapiens) (UniProt P08670)
Sequence (P08670 2-466): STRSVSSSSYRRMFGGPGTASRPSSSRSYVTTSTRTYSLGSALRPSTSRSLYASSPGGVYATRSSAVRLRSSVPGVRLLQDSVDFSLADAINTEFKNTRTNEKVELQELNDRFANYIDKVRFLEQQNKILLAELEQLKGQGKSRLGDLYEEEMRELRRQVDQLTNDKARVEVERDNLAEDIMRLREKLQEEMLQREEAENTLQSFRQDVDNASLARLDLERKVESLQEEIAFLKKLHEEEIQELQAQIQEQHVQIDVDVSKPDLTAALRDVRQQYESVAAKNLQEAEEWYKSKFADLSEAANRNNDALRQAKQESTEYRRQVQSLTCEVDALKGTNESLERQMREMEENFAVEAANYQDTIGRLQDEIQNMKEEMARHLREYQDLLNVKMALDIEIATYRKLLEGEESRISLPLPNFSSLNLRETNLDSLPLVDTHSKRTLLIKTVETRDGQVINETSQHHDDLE

Chain of envoplakin PRD (Q92817 1822-2014): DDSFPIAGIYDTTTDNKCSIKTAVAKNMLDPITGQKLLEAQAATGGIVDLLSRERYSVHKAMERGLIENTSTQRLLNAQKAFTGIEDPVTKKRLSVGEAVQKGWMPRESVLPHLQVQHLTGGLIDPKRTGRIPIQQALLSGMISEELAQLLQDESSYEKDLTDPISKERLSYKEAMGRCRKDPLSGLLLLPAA

- Kd: 19.1 µM
Substance: envoplakin PRD (from UniProt Q92817)
